A short description of series [1]: immunoblot, Hepa1c1c7 lysate, normalised to actin. To be noted: glycan gained; control: wild type full-length LDLR.
The nature of series [2]: cell-surface biotinylation and confocal microscopy, HEK293. The note with it: glycan gained; control: wild type full-length LDLR.
The nature of series [3]: immunoblot of mature LDLR form, HEK293. The note with it: glycan lost; control: DMSO-treated cells.

This is an account of results in PMC6399494.

Consider LDL receptor (LDLR): D203N, for which, in series [1], the expression_or_secretion result is given as “no change”. The localisation_or_trafficking result in series [2] is given as “no change”. As to “LDL receptor (LDLR): tunicamycin, WT LDLR”, the localisation_or_trafficking result in series [3] is “no change”.
